Test results: patent US20210032313A1 (Daiichi Sankyo, published 2021)
Changes are numbered by the printed parent chain.

T1: mouse KLK5 (mouse)
T1 chain: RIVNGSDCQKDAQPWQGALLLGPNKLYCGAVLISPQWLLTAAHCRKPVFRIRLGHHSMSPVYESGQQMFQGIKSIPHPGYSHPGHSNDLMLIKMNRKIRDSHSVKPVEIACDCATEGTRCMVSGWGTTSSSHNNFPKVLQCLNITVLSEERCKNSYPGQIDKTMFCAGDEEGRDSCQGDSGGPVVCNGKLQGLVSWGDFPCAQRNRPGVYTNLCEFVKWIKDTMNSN

T2: mouse KLK14 (mouse, UniProt Q8CGR5 24-250)
T2 sequence: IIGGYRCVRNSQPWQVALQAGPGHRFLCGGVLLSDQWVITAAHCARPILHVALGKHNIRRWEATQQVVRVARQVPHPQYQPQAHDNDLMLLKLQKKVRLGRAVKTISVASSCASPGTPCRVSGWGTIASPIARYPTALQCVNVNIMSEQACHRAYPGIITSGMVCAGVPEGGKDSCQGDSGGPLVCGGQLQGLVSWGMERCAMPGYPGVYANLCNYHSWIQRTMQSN

T3: human KLK14 (human, UniProt Q9P0G3 25-251)
T3 sequence: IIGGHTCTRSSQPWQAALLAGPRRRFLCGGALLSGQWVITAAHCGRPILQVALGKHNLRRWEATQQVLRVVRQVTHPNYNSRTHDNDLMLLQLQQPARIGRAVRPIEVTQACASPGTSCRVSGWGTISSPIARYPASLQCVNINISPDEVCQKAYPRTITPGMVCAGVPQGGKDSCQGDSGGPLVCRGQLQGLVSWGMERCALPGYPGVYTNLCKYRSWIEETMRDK

T4: human KLK5 (human, UniProt Q9Y337 67-293)
T4 sequence: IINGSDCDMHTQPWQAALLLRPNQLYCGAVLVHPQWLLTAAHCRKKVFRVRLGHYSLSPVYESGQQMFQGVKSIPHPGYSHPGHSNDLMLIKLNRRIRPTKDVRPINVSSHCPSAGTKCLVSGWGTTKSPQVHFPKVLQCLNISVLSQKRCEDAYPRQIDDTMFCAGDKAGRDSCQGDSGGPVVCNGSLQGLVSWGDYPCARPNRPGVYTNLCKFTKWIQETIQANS

B1: KLK5/KLK14 inhibitory peptide K51069 (peptide)
chain: GPQFGLFSKYRTPNCSQVVETYCNRDYDPVCGSDMSTYANECTLCMKIREGGHNIKIIRNGPCGG
notes: SPINK2 mutant peptide made in E. coli
B2: KLK5/KLK14 inhibitory peptide K50015 (peptide)
chain: B1 chain with S16Y, Q17D, V18T, V19T, E20T, T21H, N24S, D26E
notes: as for B1

Assays:
[1] = biological target: mouse KLK7 (mouse, UniProt Q91VE3 26-249); assay: cell-based or functional assay
Sequence of mouse KLK7 (Q91VE3 26-249): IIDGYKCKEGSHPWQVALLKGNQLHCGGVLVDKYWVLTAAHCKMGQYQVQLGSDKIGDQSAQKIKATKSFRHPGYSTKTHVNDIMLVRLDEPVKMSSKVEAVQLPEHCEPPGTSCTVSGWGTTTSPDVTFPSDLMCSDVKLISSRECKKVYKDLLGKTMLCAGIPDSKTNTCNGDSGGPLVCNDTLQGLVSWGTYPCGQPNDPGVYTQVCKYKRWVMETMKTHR

[2] = biological target: T1, mouse KLK5; assay: cell-based or functional assay
[3] = biological target: T2, mouse KLK14; assay: cell-based or functional assay
[4] = biological target: human KLK7 (human, UniProt P49862 30-253); assay: cell-based or functional assay
Sequence of human KLK7 (P49862 30-253): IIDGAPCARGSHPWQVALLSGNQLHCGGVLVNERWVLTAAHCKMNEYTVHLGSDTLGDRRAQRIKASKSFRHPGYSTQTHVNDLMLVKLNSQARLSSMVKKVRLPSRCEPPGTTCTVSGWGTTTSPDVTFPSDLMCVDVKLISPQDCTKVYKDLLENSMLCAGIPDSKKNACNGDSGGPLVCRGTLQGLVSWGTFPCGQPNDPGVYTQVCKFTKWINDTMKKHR

[5] = biological target: T3, human KLK14; assay: cell-based or functional assay
[6] = biological target: T4, human KLK5; assay: cell-based or functional assay
[7] = biological target: bChymotrypsin; assay: fluorogenic peptide substrate cleavage, 1 µM inhibitor
Description: FIG. 3A includes graphs to evaluate the cross-reactivity of each inhibitory peptide with proteases, using the degradation of a peptide substrate as an index. For evaluating the Bovine trypsin inhibitory activity, trypsin (Pierce, 20233) with a final concentration of 5 nM and a substrate peptide Boc-Val-Pro-Arg-AMC (R&D Systems, Inc., ES011) with a final concentration of 100 μM were used. For evaluating the Human trypsin inhibitory activity, trypsin (Sigma-Aldrich Co. LLC, T6424) with a final concentration of 1 nM and a substrate peptide Boc-Val-Pro-Arg-AMC (R&D Systems, Inc., ES011) with a final concentration of 100 μM were used. For evaluating the Bovine α-chymotrypsin inhibitory activity, chymotrypsin (Worthington Biochemical Corporation, LS001434) with a final concentration of 10 nM and a substrate peptide Suc-Leu-Leu-Val-Tyr-MCA (PEPTIDE […], INC., 3120-v) with a final concentration of 100 μM were used.
(§1) The specificities for other proteases were evaluated using the degradation of a substrate peptide as an index. As in the method described in (3-1), 25 μL each of a protease and a sample diluted with an assay buffer were mixed (to a final concentration of sample of 1 μM), followed by a reaction at 37° C. for 20 minutes. Thereafter, 50 μL of a substrate diluted with an assay buffer was added thereto, and the fluorescence signal was measured using Enspire (PerkinElmer). An assay buffer (50 mM Tris, 150 mM NaCl, pH 8.0) was used for the evaluation of the protease activity, and a PROTEOSAVE® SS96F black plate (Sumitomo Bakelite Co., Ltd.) was used for the reaction and the measurement. The combinations of the protease and the substrate used for the evaluation of the specificity were as follows.

[8] = biological target: T5, KLK4 (human, UniProt Q9Y5K2); assay: as above
T5 construct: commercial enzyme (R&D Systems, 1719-SE); 1 µg/mL in the assay; substrate Boc-Val-Pro-Arg-AMC 100 µM; also called Human KLK4; hKLK4
T5 sequence (Q9Y5K2 31-254 limits assumed): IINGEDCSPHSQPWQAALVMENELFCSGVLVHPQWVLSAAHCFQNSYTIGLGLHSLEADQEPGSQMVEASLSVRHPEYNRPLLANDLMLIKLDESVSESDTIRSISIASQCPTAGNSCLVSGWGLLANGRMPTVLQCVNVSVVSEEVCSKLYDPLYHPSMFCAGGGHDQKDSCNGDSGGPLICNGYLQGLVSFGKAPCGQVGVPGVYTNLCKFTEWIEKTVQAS
Description: FIG. 3F includes graphs to evaluate the cross-reactivity of each inhibitory peptide with proteases, using the degradation of a peptide substrate as an index. For evaluating the Human KLK1 inhibitory activity, hKLK1 (R&D Systems, Inc., 2337-SE) with a final concentration of 0.1 μg/mL and a substrate peptide Pro-Phe-Arg-MCA (PEPTIDE […], INC., 3096-v) with a final concentration of 100 μM were used. For evaluating the Human KLK2 inhibitory activity, hKLK2 (R&D Systems, Inc., 4104-SE) with a final concentration of 2 μg/mL and a substrate peptide Pro-Phe-Arg-MCA (PEPTIDE […], INC., 3096-v) with a final concentration of 100 μM were used. For evaluating the Human KLK4 inhibitory activity, hKLK4 (R&D Systems, Inc., 1719-SE) with a final concentration of 1 μg/mL and a substrate peptide Boc-Val-Pro-Arg-AMC (R&D Systems, Inc., ES011) with a final concentration of 100 μM were used.
as §1

Row | Binder | IC50(nM) for mKLK7 [1] [nM] | IC50(nM) for mKLK5 [2] [nM] | IC50(nM) for mKLK14 [3] [nM] | IC50(nM) for hKLK7 [4] [nM] | IC50(nM) for hKLK14 [5] [nM] | IC50(nM) for hKLK5 [6] [nM] | binding result [7] | binding result [8]
1 | B1 | 181 | < 0.5 | 40 | > 1000 | 72 | 6.8 | binds | binds
2 | B2 | 248 | < 0.5 | 108 | > 1000 | 17 | 6.8 | binds | binds
